{"source": "patent US11524082B2", "about": "“FBSA-based therapeutic and radioimaging conjugates targeting carbonic anhydrase positive cancers” (priority 2017, dated 2022)", "key": {"[1]": {"system": "HT29 xenografts", "parameters": "species or system mice", "settings": "in vivo", "experimental": "(§1) Whole-Body Imaging and Biodistribution of Radiolabeled 17 in Mouse Xenograft Models\n(§2) SKRC52, HT29, or A549 cells (˜3×10^6 cells per mouse) were injected subcutaneously into the shoulders of female athymic nu/nu mice. Growth of the tumors was measured in two perpendicular directions and the volumes of the tumors were calculated as 0.5×L×W^2 (L=longest axis and W=axis perpendicular to L in millimeters). Once tumors reached a minimum of 500 mm^3 in volume, animals were injected with radiolabeled Conjugate 17 (250 μCi) in PBS (100 μL, pH 7.4) via tail vein injection. To obtain whole-body images, mice were anesthetized with isoflurane and images were acquired with a Kodak Imaging Station (In-Vivo FX, Eastman Kodak Company) in combination with CCD camera and Kodak molecular imaging software (version 4.0) with the kidneys shielded. Radioimages were acquired using the following parameters: radio isotope illumination source, 3 min acquisition time, f-stop=4, focal plane=5, FOV=160, binning=8. White light images were acquired using the following parameters: white light transillumination illumination source, 0.175 s acquisition time, f-stop=16, focal plane=5, FOV=160, and no binning. After acquiring the whole-body imaging, the mice were sacrificed with CO2 asphyxiation and, following necropsy, the tissues were placed into preweighed γ-counter tubes. The radioactivity of the tissues and a fraction of the injected dose was measured in a γ-counter (Packard, Packard Instrument Company). Count per minute (CPM) values were corrected for decay times, and the results were calculated as percent of the injected dose per gram (% ID/g) of wet tissue."}, "[2]": {"system": "SKRC52 xenografts", "parameters": "species or system mice", "settings": "mouse, in vivo", "experimental": "as §1, §2"}, "[3]": {"system": "A549 xenografts", "parameters": "species or system mice", "settings": "in vivo", "experimental": "as §1, §2\n250 μCi of radiolabeled Conjugate 17 was injected into the tail vein of mice bearing xenografts derived from the A549 cell line. At various time points shown in Table 3, the tissues were removed from the mice (n=1 per time point), weighed, and the radioactivity was quantified on a gamma counter. Because copper-64 emits gamma radiation at 511 keV in 36% abundance, it is possible to use gamma detection methods."}, "[4]": {"biological_target": "T1, CAIX (Homo sapiens, UniProt Q16790)", "test": "Binding affinity of CAIX FITC conjugates by flow cytometry in SKRC52 cells", "parameters": "endogenous in cells; host or cells: SKRC52", "description": "(§3) General Procedure for Binding Affinity Determination of CAIX FITC Conjugates"}, "[5]": {"biological_target": "T1, CAIX", "test": "Binding affinity of CAIX FITC conjugates by flow cytometry in HEK293 transfected with CAIX", "parameters": "expressed in transfected cells; host or cells: HEK293", "description": "as §3"}}}
{"smiles": "NS(=O)(=O)c1c(F)c(F)c(S(=O)(=O)CCC(=O)NCCOCCOCCC(=O)NCCNC(=O)CCC(C(=O)O)N2CCN(CC(=O)O)CCN(CC(=O)O)CC2)c(NC2CCCCCCC2)c1F", "note": "(stereo not shown) (64Cu complex, metal not drawn) [radiolabeled Conjugate 17]", "values": [{"measurement": "tumor uptake in whole-body image, targeted versus competition mouse", "setting": "[1]", "value": "also demonstrated in mice bearing HT29 xenografts"}, {"measurement": "tumor to tissue background ratios", "setting": "[1]; mouse", "value": "not very good"}, {"measurement": "radioactivity at the tumor, with competition control", "setting": "[2]", "value": "the radioactivity at the tumor was receptor mediated"}, {"measurement": "uptake of removed tumors, targeted versus competition", "setting": "[2]", "value": "higher tumor uptake in the targeted mouse versus the competition mice"}, {"measurement": "radiation count at the tumor site, competition mouse versus non-competition mouse", "setting": "[3]", "value": "much lower radiation count at the tumor site"}, {"measurement": "tumor uptake in whole-body image, targeted versus competition mouse", "setting": "[3]", "value": "much higher tumor uptake than that of the competition mouse"}, {"measurement": "time of the highest tumor-to-tissue ratio", "setting": "[3]; mouse", "value": "nine"}]}
{"smiles": "N[C@@H](CNC(=O)CCOCCOCCOCCOCCNC(=O)CCS(=O)(=O)c1c(F)c(F)c(S(N)(=O)=O)c(F)c1NC1CCCCCCC1)C(=O)N[C@@H](CC(=O)O)C(=O)N[C@@H](CSC1CC(=O)N(c2ccc(-c3c4ccc(=O)cc-4oc4cc(O)ccc34)c(C(=O)O)c2)C1=O)C(=O)O", "note": "(stereo partly drawn) [Conjugate 7, 5-(3-(((2R,5S,8S)-8-amino-2-carboxy-5-(carboxymethyl)-29-((2-(cyclooctylamino)-3,5,6-trifluoro-4-sulfamoylphenyl)sulfonyl)-4,7,11,27-tetraoxo-14,17,20,23-tetraoxa-3,6,10,26-tetraazanonacosyl)thio)-2,5-dioxopyrrolidin-1-yl)-2-(6-hydroxy-3-oxo-3H-xanthen-9-yl)benzoic acid]", "values": [{"measurement": "Kd", "setting": "[4]", "value": 4.57, "unit": "nM"}, {"measurement": "Kd", "setting": "[5]", "value": 55.2, "unit": "nM"}, {"measurement": "binding with competition by unconjugated inhibitor", "setting": "[5]; HEK293-CA9 cells, 100-fold excess unconjugated inhibitor (Compound 3), FIG. 5", "value": "bound the cells and competed in the presence of 100-fold excess unconjugated inhibitor"}]}
